No end group written: not given here.
Target: HLA-A*0201 (HLA-A2.1) (Homo sapiens, UniProt P04439, D140Y/D185E/D98H/E176V/E277Q/G131W/G231S/I119V/I121R/I166T/I218V/L300P/L318F/N151K/N90K/P208A/P217A/Q86G/Q94H/R138H/R169H/T345S)
Assay: biochemical
Format: binding

| Substance | binding to HLA-A2.1 (column 3; no allele head shown for these rows) | A2.1 | other results |
| --- | --- | --- | --- |
| 11546 (SLLPAIVEL) [Peptide 11546] | – | – | A2.1 Binding: 0.19 |
| AALREEEEGV | 0 | – | – |
| AATSSSSPLV | 0 | – | – |
| AISRKMVELV | – | 0 | – |
| ALEAQQEA | – | 0 | – |
| ALEAQQEAL | – | <0.0003 | – |
| ALEAQQEALGL | 0.0001 | – | – |
| ALNKMFBQV [Peptide 1323.04] | – | – | A*0201: 0.0260 |
| AMBRWGLLV [Peptide 1334.08] | – | – | A*0201: 0.1400 |
| ATSSSSPLV | 0.0007 | – | – |
| ATSSSSPLVL | 0 | – | – |
| ATVGIJIGV [Peptide 1345.02] | – | – | A*0201: 0.1595 |
| AVITKKVA | 0 | – | – |
| AVITKKVAD | – | <0.0002 | – |
| AVITKKVADL | – | 0 | – |
| AVITKKVADLV | 0 | – | – |
| BLLAKTBPV [Peptide 1329.15] | – | – | A*0201: 0.1100 |
| BLTIHYNYV [Peptide 1323.08] | – | – | A*0201: 0.0430 |
| BQLAKTBPV [Peptide 1329.14] | – | – | A*0201: 0.0490 |
| CILESLFRAV | – | 0.0003 | – |
| CILESLFRAVI | 0.0030 | – | – |
| CKPEEALEA | – | <0.0002 | – |
| CLGLSYDGLL | – | 0 | – |
| CLLAKTCPV [Peptide 1326.01] | – | – | A*0201: 0.0400 |
| CQLAKTCPV [Peptide 1324.07] | – | – | A*0201: 0.0240 |

| Substance | binding to HLA-A2.1 (column 3; no allele head shown for these rows) | A2.1 | other results |
| --- | --- | --- | --- |
| DLESEFQAA | 0 | – | – |
| DLESEFQAAI | 0 | – | – |
| DLESEFQAAISRKMV | 0 | – | – |
| DLQQSLRVL | – | 0 | – |
| DLVGFLLL | – | 0 | – |
| DLVQEKYL | – | 0 | – |
| DLVQEKYLEYRQV | 0 | – | – |
| DPTGHSYVL | – | <0.0002 | – |
| EADPTGHSYV | 0 | – | – |
| EALEAQQEA | 0 | – | – |
| EALGLVCVQA | 0.0005 | – | – |
| EAQQEALGLV | 0 | – | – |
| EIFGKASESL | – | 0 | – |
| EIWEELSV | 0 | – | – |
| EIWEELSVM | 0 | – | – |
| ELSVMEVYD | – | <0.0002 | – |
| EVDPIGHLYI | <0.0002 | – | – |
| EVVPISHLYI | <0.0002 | – | – |
| FLIIVLVM | – | 0 | – |
| FLIIVLVMI | – | 0.0005 | – |
| FPTTINFTR | – | <0.0002 | – |
| GIDVKEADPT | 0 | – | – |
| GIELMEVDPI | <0.0002 | – | – |
| GIEVVEVVPI | <0.0002 | – | – |
| GKASESLQL | – | <0.0002 | – |

| Substance | binding to HLA-A2.1 (column 3; no allele head shown for these rows) | A2.1 | other results |
| --- | --- | --- | --- |
| GLLGDNQI | – | 0 | – |
| GLSYDGLL | – | 0.0001 | – |
| GLSYDGLLV | 0.0047 | – | – |
| GLYDGMEHV [Peptide 1586.08] | – | – | IC50: 155 nM |
| GLYDGREHTV [Peptide 1586.06] | – | – | IC50: 144 nM |
| GMCCPDLSPV [Peptide 41.0157] | – | – | A*0201: 0.0950 |
| GREHSAYGE | – | <0.0002 | – |
| GVQGPSLKPA | – | 0.0001 | – |
| GVQGPSLKPAM | 0 | – | – |
| HAPEEEIWE | – | <0.0002 | – |
| IIAIEGDCA | 0 | – | – |
| IIAREGDCA | 0 | – | – |
| IIVLVMIA | 0.0002 | – | – |
| IIVLVMIAM | 0.0007 | – | – |
| IJIGVLVGV [Peptide 1345.01] | – | – | A*0201: 0.0570 |
| ILESLFRAV | – | 0.0004 | – |
| ILESLFRAVI | – | 0.0002 | – |
| IMPKAGLLI | 0.0064 | – | – |
| IMPKAGLLII | 0.0015 | – | – |
| IMPKTGFL | – | 0.0001 | – |
| ITKKVADLV | 0 | – | – |
| IVLVMIAM | 0.0001 | – | – |
| KAEMLGSVV | 0 | – | – |
| KAGLLIIVLA | <0.0002 | – | – |
| KASESLQLV | 0.0009 | – | – |

| Substance | binding to HLA-A2.1 (column 3; no allele head shown for these rows) | A2.1 | other results |
| --- | --- | --- | --- |
| KASEYLQLV | 0.011 | – | – |
| KLLTQDLV | – | 0.0004 | – |
| KLLTQDLVQEKYL | 0.0060 | – | – |
| KLPGLLSRDL | – | 0 | – |
| KTGFLIIVL | 0.0006 | – | – |
| KTGFLIIVLV | 0.0012 | – | – |
| KTGLLIIVLA | <0.0002 | – | – |
| LAETSYVKV | 0 | – | – |
| LIIVLVMI | 0.0001 | – | – |
| LIIVLVMIA | 0 | – | – |
| LIIVLVMIAM | 0.0003 | – | – |
| LLGDNQIM | – | 0 | – |
| LLIIVLAIIA | <0.0002 | – | – |
| LLKYRAREPV | – | 0 | – |
| LLSRDLQQSL | – | 0.0007 | – |
| LQLVFGIDV | 0.0004 | – | – |
| LVFGIELJEV [Peptide 1345.04] | – | – | A*0201: 0.7650 |
| LVGFLLLKYRA | 0.0004 | – | – |
| LVMIAMEGG | – | <0.0002 | – |
| LVMIAMEGGHA | 0.0005 | – | – |
| MIAMEGGHA | 0.0005 | – | – |
| MLGSVVGNWQYFFPV | 0.012 | – | – |
| MSSCGVQGP | – | <0.0002 | – |
| PIGHLYIFA | 0 | – | – |
| PKTGFLIIV | – | <0.0002 | – |

| Substance | binding to HLA-A2.1 (column 3; no allele head shown for these rows) | A2.1 | other results |
| --- | --- | --- | --- |
| PLVLGTLEE | – | <0.0002 | – |
| PLVLGTLEEV | – | 0.0008 | – |
| PQSPQGASA | – | <0.0002 | – |
| PRKLLTQDL | – | <0.0002 | – |
| PTGHSYVLV | 0 | – | – |
| PTGHSYVLVT | 0 | – | – |
| PVTKAEML | – | 0 | – |
| PVTKAEMLESV | 0 | – | – |
| QAAISRKMV | 0 | – | – |
| QAALSRKVA | 0 | – | – |
| QIMPKAGLL | – | 0 | – |
| QIMPKTGFL | – | 0.0007 | – |
| QIMPKTGFLI | 0.0009 | – | – |
| QLVFGIDV | – | 0 | – |
| QLVFGIDVKEA | 0.0001 | – | – |
| QQEALGLVC | – | <0.0002 | – |
| QRQPSEGSS | – | <0.0002 | – |
| QVMPKTGLL | 0 | – | – |
| RAREPVTKA | 0 | – | – |
| RAVITKKVA | 0 | – | – |
| RCRTVIPHA | – | <0.0002 | – |
| RKLLTQDLV | 0 | – | – |
| RVRFFFPSL | 0.0001 | – | – |
| SAFPTTINFT | 0 | – | – |
| SESLQLVFGI | 0 | – | – |
